Among the targets are mZFP568 ZF1-11 (Mus musculus, UniProt E9PYI1 363-665); mZFP568 ZF2-11 (Mus musculus, UniProt E9PYI1 391-665); mZFP568 ZF1-10 (Mus musculus, UniProt E9PYI1 363-637).
What all share (assay): X-ray crystallography

mZFP568 ZF2-11, sequence (E9PYI1 391-665): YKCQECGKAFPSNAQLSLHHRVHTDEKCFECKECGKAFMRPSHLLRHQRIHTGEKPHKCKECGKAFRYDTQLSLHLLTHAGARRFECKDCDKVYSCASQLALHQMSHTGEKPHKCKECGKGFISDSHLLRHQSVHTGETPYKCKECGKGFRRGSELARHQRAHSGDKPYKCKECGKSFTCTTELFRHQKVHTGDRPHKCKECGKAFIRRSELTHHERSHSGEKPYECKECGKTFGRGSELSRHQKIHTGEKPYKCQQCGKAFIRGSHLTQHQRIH
mZFP568 ZF1-10, sequence (E9PYI1 363-637): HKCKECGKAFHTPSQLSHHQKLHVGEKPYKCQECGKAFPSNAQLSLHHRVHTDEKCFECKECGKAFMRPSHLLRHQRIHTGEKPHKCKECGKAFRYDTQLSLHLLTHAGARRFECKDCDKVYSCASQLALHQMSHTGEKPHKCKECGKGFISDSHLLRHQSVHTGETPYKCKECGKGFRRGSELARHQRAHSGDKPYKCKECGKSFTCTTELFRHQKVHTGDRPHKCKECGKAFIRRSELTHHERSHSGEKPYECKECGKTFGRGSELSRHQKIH
mZFP568 ZF1-11, sequence (E9PYI1 363-665): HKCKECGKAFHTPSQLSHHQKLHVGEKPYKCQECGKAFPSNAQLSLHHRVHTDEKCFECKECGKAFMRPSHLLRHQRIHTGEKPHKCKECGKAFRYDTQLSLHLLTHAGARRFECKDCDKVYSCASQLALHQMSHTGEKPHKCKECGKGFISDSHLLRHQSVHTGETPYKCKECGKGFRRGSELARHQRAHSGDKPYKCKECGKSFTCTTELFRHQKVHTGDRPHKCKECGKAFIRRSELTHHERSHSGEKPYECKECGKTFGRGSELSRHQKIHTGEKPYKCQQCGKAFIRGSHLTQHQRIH

B1: 28-bp mouse Igf2-P0 crystallization oligo (dsDNA)
DNA 1: TGTGGGCGTGGCACAGGTAAAAAGGGCA
DNA 2: TGCCCTTTTTACCTGTGCCACGCCCACA
Regarding B1, the binding result with mZFP568 ZF1-11 and with mZFP568 ZF2-11 was “binds” throughout.

B2: 26-bp mouse Igf2-P0 crystallization oligo (dsDNA)
DNA 1: GTGGGCGTGGCACAGGTAAAAAGGGC
DNA 2: GCCCTTTTTACCTGTGCCACGCCCAC
As to B2, the binding result in the data set with mZFP568 ZF1-10 is “binds”.

These data come from PMC5877318.
